# Measured values reported in publication PMC8580825, “Scaffolding protein CcmM directs multiprotein phase separation in β-carboxysome biogenesis” (Nature Structural & Molecular Biology, 2021).
# B1: γCAL domain of M58 (residues 1-198) (domain or fragment, Synechococcus elongatus PCC 7942, UniProt Q03513 1-198, looked up)
# chain: MPSPTTVPVATAGRLAEPYIDPAAQVHAIASIIGDVRIAAGVRVAAGVSIRADEGAPFQVGKESILQEGAVIHGLEYGRVLGDDQADYSVWIGQRVAITHKALIHGPAYLGDDCFVGFRSTVFNARVGAGSVIMMHALVQDVEIPPGRYVPSGAIITTQQQADRLPEVRPEDREFARHIIGSPPVIVRSTPAATADFH
# notes: also called γCAL198; source: E. coli BL21 (DE3), purified (Ni-NTA, H6Ub cleaved, SEC); not shown: His6-ubiquitin, N-terminal, cleaved
# How the values were obtained:
# [1] = target: SeM58-R251D (Synechococcus elongatus PCC 7942) (UniProt Q03513); assay: SEC-MALS; 2 mg/ml protein; 50 mM Tris-HCl pH 8.0/150 mM KCl or 50 mM Tris-HCl pH 8.0/500 mM KCl/5 mM DTT; 25 °C; oligomeric state in solution
# [2] = target: SeM58-R298D (Synechococcus elongatus PCC 7942) (UniProt Q03513); assay: as above
# [3] = target: SeM58-R252D (Synechococcus elongatus PCC 7942) (UniProt Q03513); assay: as above
# [4] = target: the molecule itself; assay: as above
# [5] = target: B1; assay: ITC; EGFPC2_(17) (365 μM) in the syringe titrated into γCAL(1–198) (14 μM); 20 °C; 50 mM Tris pH 8.0/100 mM KCl/10 mM Mg(OAc)2; one-site binding model; conditions: both partners purified
molecule,measurement,setting,value
SeM58-R251D (from UniProt Q03513 1-539) (natural protein),stoichiometry N,[1],3
SeM58-R298D (from UniProt Q03513 1-539) (natural protein),stoichiometry N,[2],3
SeM58-R252D (from UniProt Q03513 1-539) (natural protein),stoichiometry N,[3],3
B1,stoichiometry N,[4],3
"γCAL domain of M58 (residues 1-181) (domain or fragment, Synechococcus elongatus PCC 7942, UniProt Q03513 1-181, looked up, residues 1-15 disordered in the crystals; also called γCAL181; source: E. coli BL21 (DE3), purified (Ni-NTA, H6Ub cleaved, SEC); not shown: His6-ubiquitin, N-terminal, cleaved) MPSPTTVPVATAGRLAEPYIDPAAQVHAIASIIGDVRIAAGVRVAAGVSIRADEGAPFQVGKESILQEGAVIHGLEYGRVLGDDQADYSVWIGQRVAITHKALIHGPAYLGDDCFVGFRSTVFNARVGAGSVIMMHALVQDVEIPPGRYVPSGAIITTQQQADRLPEVRPEDREFARHIIG",stoichiometry N,[4],3
"SeM58-E303K (natural protein, Synechococcus elongatus PCC 7942, UniProt Q03513 1-539, looked up, CcmM (M58), Synechococcus elongatus PCC 7942, point mutant in SSUL1; source: E. coli BL21 (DE3), purified as wild-type M58; not shown: His6-ubiquitin, N-terminal, cleaved) MPSPTTVPVATAGRLAEPYIDPAAQVHAIASIIGDVRIAAGVRVAAGVSIRADEGAPFQVGKESILQEGAVIHGLEYGRVLGDDQADYSVWIGQRVAITHKALIHGPAYLGDDCFVGFRSTVFNARVGAGSVIMMHALVQDVEIPPGRYVPSGAIITTQQQADRLPEVRPEDREFARHIIGSPPVIVRSTPAATADFHSTPTPSPLRPSSSEATTVSAYNGQGRLSSEVITQVRSLLNQGYRIGTEHADKRRFRTSSWQPCAPIQSTNERQVLSELENCLSEHEGEYVRLLGIDTNTRSRVFKALIQRPDGSVPESLGSQPVAVASGGGRQSSYASVSGNLSAEVVNKVRNLLAQGYRIGTEHADKRRFRTSSWQSCAPIQSSNERQVLAELENCLSEHEGEYVRLLGIDTASRSRVFEALIQDPQGPVGSAKAAAAPVSSATPSSHSYTSNGSSSSDVAGQVRGLLAQGYRISAEVADKRRFQTSSWQSLPALSGQSEATVLPALESILQEHKGKYVRLIGIDPAARRRVAELLIQKP",stoichiometry N,[4],3
"SeM58-R37D (natural protein, Synechococcus elongatus PCC 7942, UniProt Q03513 1-539, looked up, CcmM (M58), Synechococcus elongatus PCC 7942, point mutant in the γCAL domain; source: E. coli BL21 (DE3), purified as wild-type M58; not shown: His6-ubiquitin, N-terminal, cleaved) MPSPTTVPVATAGRLAEPYIDPAAQVHAIASIIGDVDIAAGVRVAAGVSIRADEGAPFQVGKESILQEGAVIHGLEYGRVLGDDQADYSVWIGQRVAITHKALIHGPAYLGDDCFVGFRSTVFNARVGAGSVIMMHALVQDVEIPPGRYVPSGAIITTQQQADRLPEVRPEDREFARHIIGSPPVIVRSTPAATADFHSTPTPSPLRPSSSEATTVSAYNGQGRLSSEVITQVRSLLNQGYRIGTEHADKRRFRTSSWQPCAPIQSTNERQVLSELENCLSEHEGEYVRLLGIDTNTRSRVFEALIQRPDGSVPESLGSQPVAVASGGGRQSSYASVSGNLSAEVVNKVRNLLAQGYRIGTEHADKRRFRTSSWQSCAPIQSSNERQVLAELENCLSEHEGEYVRLLGIDTASRSRVFEALIQDPQGPVGSAKAAAAPVSSATPSSHSYTSNGSSSSDVAGQVRGLLAQGYRISAEVADKRRFQTSSWQSLPALSGQSEATVLPALESILQEHKGKYVRLIGIDPAARRRVAELLIQKP",stoichiometry N,[4],3
"SeM58-R43D (natural protein, Synechococcus elongatus PCC 7942, UniProt Q03513 1-539, looked up, CcmM (M58), Synechococcus elongatus PCC 7942, point mutant in the γCAL domain; source: E. coli BL21 (DE3), purified as wild-type M58; not shown: His6-ubiquitin, N-terminal, cleaved) MPSPTTVPVATAGRLAEPYIDPAAQVHAIASIIGDVRIAAGVDVAAGVSIRADEGAPFQVGKESILQEGAVIHGLEYGRVLGDDQADYSVWIGQRVAITHKALIHGPAYLGDDCFVGFRSTVFNARVGAGSVIMMHALVQDVEIPPGRYVPSGAIITTQQQADRLPEVRPEDREFARHIIGSPPVIVRSTPAATADFHSTPTPSPLRPSSSEATTVSAYNGQGRLSSEVITQVRSLLNQGYRIGTEHADKRRFRTSSWQPCAPIQSTNERQVLSELENCLSEHEGEYVRLLGIDTNTRSRVFEALIQRPDGSVPESLGSQPVAVASGGGRQSSYASVSGNLSAEVVNKVRNLLAQGYRIGTEHADKRRFRTSSWQSCAPIQSSNERQVLAELENCLSEHEGEYVRLLGIDTASRSRVFEALIQDPQGPVGSAKAAAAPVSSATPSSHSYTSNGSSSSDVAGQVRGLLAQGYRISAEVADKRRFQTSSWQSLPALSGQSEATVLPALESILQEHKGKYVRLIGIDPAARRRVAELLIQKP",stoichiometry N,[4],3
"SeM58-D21K (natural protein, Synechococcus elongatus PCC 7942, UniProt Q03513 1-539, looked up, CcmM (M58), Synechococcus elongatus PCC 7942, point mutant in the γCAL domain; source: E. coli BL21 (DE3), purified as wild-type M58; not shown: His6-ubiquitin, N-terminal, cleaved) MPSPTTVPVATAGRLAEPYIKPAAQVHAIASIIGDVRIAAGVRVAAGVSIRADEGAPFQVGKESILQEGAVIHGLEYGRVLGDDQADYSVWIGQRVAITHKALIHGPAYLGDDCFVGFRSTVFNARVGAGSVIMMHALVQDVEIPPGRYVPSGAIITTQQQADRLPEVRPEDREFARHIIGSPPVIVRSTPAATADFHSTPTPSPLRPSSSEATTVSAYNGQGRLSSEVITQVRSLLNQGYRIGTEHADKRRFRTSSWQPCAPIQSTNERQVLSELENCLSEHEGEYVRLLGIDTNTRSRVFEALIQRPDGSVPESLGSQPVAVASGGGRQSSYASVSGNLSAEVVNKVRNLLAQGYRIGTEHADKRRFRTSSWQSCAPIQSSNERQVLAELENCLSEHEGEYVRLLGIDTASRSRVFEALIQDPQGPVGSAKAAAAPVSSATPSSHSYTSNGSSSSDVAGQVRGLLAQGYRISAEVADKRRFQTSSWQSLPALSGQSEATVLPALESILQEHKGKYVRLIGIDPAARRRVAELLIQKP",stoichiometry N,[4],3
"SeM58-E17K (natural protein, Synechococcus elongatus PCC 7942, UniProt Q03513 1-539, looked up, CcmM (M58), Synechococcus elongatus PCC 7942, point mutant in the γCAL domain; source: E. coli BL21 (DE3), purified as wild-type M58; not shown: His6-ubiquitin, N-terminal, cleaved) MPSPTTVPVATAGRLAKPYIDPAAQVHAIASIIGDVRIAAGVRVAAGVSIRADEGAPFQVGKESILQEGAVIHGLEYGRVLGDDQADYSVWIGQRVAITHKALIHGPAYLGDDCFVGFRSTVFNARVGAGSVIMMHALVQDVEIPPGRYVPSGAIITTQQQADRLPEVRPEDREFARHIIGSPPVIVRSTPAATADFHSTPTPSPLRPSSSEATTVSAYNGQGRLSSEVITQVRSLLNQGYRIGTEHADKRRFRTSSWQPCAPIQSTNERQVLSELENCLSEHEGEYVRLLGIDTNTRSRVFEALIQRPDGSVPESLGSQPVAVASGGGRQSSYASVSGNLSAEVVNKVRNLLAQGYRIGTEHADKRRFRTSSWQSCAPIQSSNERQVLAELENCLSEHEGEYVRLLGIDTASRSRVFEALIQDPQGPVGSAKAAAAPVSSATPSSHSYTSNGSSSSDVAGQVRGLLAQGYRISAEVADKRRFQTSSWQSLPALSGQSEATVLPALESILQEHKGKYVRLIGIDPAARRRVAELLIQKP",stoichiometry N,[4],3
"SeM58-D35K (natural protein, Synechococcus elongatus PCC 7942, UniProt Q03513 1-539, looked up, CcmM (M58), Synechococcus elongatus PCC 7942, point mutant in the γCAL domain; source: E. coli BL21 (DE3), purified as wild-type M58; not shown: His6-ubiquitin, N-terminal, cleaved) MPSPTTVPVATAGRLAEPYIDPAAQVHAIASIIGKVRIAAGVRVAAGVSIRADEGAPFQVGKESILQEGAVIHGLEYGRVLGDDQADYSVWIGQRVAITHKALIHGPAYLGDDCFVGFRSTVFNARVGAGSVIMMHALVQDVEIPPGRYVPSGAIITTQQQADRLPEVRPEDREFARHIIGSPPVIVRSTPAATADFHSTPTPSPLRPSSSEATTVSAYNGQGRLSSEVITQVRSLLNQGYRIGTEHADKRRFRTSSWQPCAPIQSTNERQVLSELENCLSEHEGEYVRLLGIDTNTRSRVFEALIQRPDGSVPESLGSQPVAVASGGGRQSSYASVSGNLSAEVVNKVRNLLAQGYRIGTEHADKRRFRTSSWQSCAPIQSSNERQVLAELENCLSEHEGEYVRLLGIDTASRSRVFEALIQDPQGPVGSAKAAAAPVSSATPSSHSYTSNGSSSSDVAGQVRGLLAQGYRISAEVADKRRFQTSSWQSLPALSGQSEATVLPALESILQEHKGKYVRLIGIDPAARRRVAELLIQKP",stoichiometry N,[4],3
"GWLAPEQQQRIYRGNAS (the last 17 residues of CcaA, Synechococcus elongatus PCC 7942; residues 1-255 of CcaA replaced by EGFP-GSGGS; EGFP amplified from pEF-gfp (Addgene); source: E. coli BL21 (DE3), purified (Ni-NTA, H6Ub cleaved, SEC); not shown: EGFP with GSGGS linker, N-terminal, kept; His6-ubiquitin, N-terminal, cleaved) [EGFPC2_(17)]",Kd,[5],~2000 nM
same,stoichiometry N,[5],~2.7 per γCAL198 trimer
